# From PMC7835374 (Nature Communications, 2021)
# B1: 3I14 fragment antigen-binding region (Fab) (Fab, V domains shown)
# VH: QVQLLESGGGVVQPGRSLRLSCAASGFTFSNYGMHWVRQAPGKGLEWVAIISFDGSKKYYANSVKGRSTISRDNSKNTLSLQMNSLGPEDTALYYCAKLPSPYYFDSRFVWVAASAFHFWGQGILVTVSS
# VL: NFMLTQPPSASGTPGQRVTISCSGSSSNIGGNTVHWFQQLPGTAPKLLIYTNSLRPSGVPDRFSGSKSGTSASLAISGLQSEDEADYYCAAWDDSLNGQVFGGGTKLTVL
# B2: 3I14^D93N Fab (Fab, V domains shown)
# VH: B1 VH
# VL: LTQPPSASGTPGQRVTISCSGSSSNIGGNTVHWFQQLPGTAPKLLIYTNSLRPSGVPDRFSGSKSGTSASLAISGLQSEDEADYYCAAWDNSLNGQVFGGGTKLTVL
# Target: T1, hemagglutinin H3 (A/Victoria/361/2011), trypsin-cleaved HA1/HA2 trimer for crystallization (Influenza A virus A/Victoria/361/2011 …, UniProt A0A097PF39, strain, N-linked glycans (a group 2-specific sugar at position 38 of HA1))
# T1 construct: copies: 3 + 3
# Assay: crystal structure
# Conditions: both partners purified
row,Binder,binding result
1,B1,binds
2,B2,binds
